Experimental findings from article PMC7092895 (Biochemical and Biophysical Research Communications, 2005) are described below.

Holding throughout (test): ELISA
In experiment [1] the target is recombinant SARS-CoV nucleocapsid protein (SCoV-N), His6-tagged (SARS-CoV, strain CUHK-W1, UniProt P59595).
In experiment [2] the target is recombinant interleukin 11 (IL-11) (Homo sapiens (assumed; ), UniProt P20809).
A further experiment deals with interleukin 6 (IL-6) (Homo sapiens (assumed; ), UniProt P05231).
Chain of interleukin 6 (IL-6) (P05231 30-212): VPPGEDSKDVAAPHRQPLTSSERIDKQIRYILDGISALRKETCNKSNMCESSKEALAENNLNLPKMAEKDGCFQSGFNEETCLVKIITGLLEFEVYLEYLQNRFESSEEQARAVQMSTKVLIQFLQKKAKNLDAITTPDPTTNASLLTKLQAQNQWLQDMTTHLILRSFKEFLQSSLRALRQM

Chain of recombinant interleukin 11 (IL-11) (P20809 22-199): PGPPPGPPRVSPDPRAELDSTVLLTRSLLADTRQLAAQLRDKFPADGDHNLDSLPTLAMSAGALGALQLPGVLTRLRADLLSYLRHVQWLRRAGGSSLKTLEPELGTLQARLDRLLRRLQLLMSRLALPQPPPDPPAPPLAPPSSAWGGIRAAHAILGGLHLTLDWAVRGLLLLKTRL
Chain of recombinant SARS-CoV nucleocapsid protein (SCoV-N), His6-tagged (P59595 whole entry): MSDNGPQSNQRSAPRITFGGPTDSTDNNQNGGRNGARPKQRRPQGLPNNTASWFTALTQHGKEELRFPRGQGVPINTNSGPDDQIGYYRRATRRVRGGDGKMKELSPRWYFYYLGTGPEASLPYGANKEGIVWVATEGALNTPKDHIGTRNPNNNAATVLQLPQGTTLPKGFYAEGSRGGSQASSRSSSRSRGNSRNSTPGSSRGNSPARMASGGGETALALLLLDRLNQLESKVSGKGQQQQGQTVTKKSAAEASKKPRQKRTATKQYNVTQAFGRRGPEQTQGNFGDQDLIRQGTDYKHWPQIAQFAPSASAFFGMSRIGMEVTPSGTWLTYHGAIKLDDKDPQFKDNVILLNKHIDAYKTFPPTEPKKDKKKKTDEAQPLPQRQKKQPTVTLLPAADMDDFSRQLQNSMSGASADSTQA

B1: anti-N scFv L9N01 (scFv-phage clone) (scFv, V domains shown)
VH: GEAAAVQGTEVVKPGASVKLSCKASGYIFTSYDIDWVRQTPEQGLEWIGWIFPGEGSTEYNEKFKGRATLSVDKSSSTAYMELTRLTSEDSAVYFCARGDYYRRYFDLWGQGTTVTVSS
VL: DIELTQSPAIMSASPGERVTMTCSASSSIRYIYWYQQKPGSSPRLLIYDTSNVAPGVPFRFSGSGSGTSYSLTINGMEAEDAATYYCQEWSGYPYTFGGGTKLELK
As to B1, the binding result in experiment [1] is reported as “binds”; in experiment [2], “binds”; in the experiment with interleukin 6 (IL-6), “no binding”.
